Measured values from patent US7754689B2, “Finger-1 peptide analogs of the TGF-β superfamily” (Wyeth LLC, priority 2006, dated 2010).
“And” between values parts separate entries of the source, which are not always exact repeats. Equal values may be shown once.

What was measured:
BMP-3 and BMP-12 = test: HPLC columns of BMP affinity resins loaded with BMP-3 and BMP-12; type: binding; settings: columns loaded with BMP-3 and BMP-12
Text: These columns were used loaded with BMP-3 and BMP-12. […] In some cases, size exclusion or reverse phase chromatography techniques were employed to enhance purification.

[1] = BMP solubility screen: A320 turbidity of BMP-12 solutions; type: physicochemical; settings: 50 mM Tris pH 8, 0.5 mg/mL BMP-12
Experimental: BMP Solubility Screen—A Tecan liquid-handling robot was used to mix a master plate of reagents, 800 μL×1.25 concentration (for each solution; see Tables 2 and 3), each in 50 mM Tris buffer at pH 8. An eight-channel pipettor was used to transfer 80 μL of material from the master plate into a half-area UV microplate, from which A320 was read from each sample to define a blank. A repeat-pipettor was used to add 20 μL of 2.5 mg/mL BMP-12 in 0.1% TFA to make a 0.5 mg/mL solution, which was then agitated at 14000 rpm. The UV absorption (A320) was read and the blank absorption subtracted to determine solubility. The procedure was repeated with a wider range of 2-methyl-2,4-pentanediol (MPD) concentrations and a finer set of salt concentrations (Table 4).

B1: BMP-12: Bone Morphogenic Protein, member of the TGF-β superfamily; tested in solution and immobilized on Sepharose beads as affinity ligand (protein)
chain: TALAGTRTAQGSGGGAGRGHGRRGRSRCSRKPLHVDFKELGWDDWIIAPLDYEAYHCEGLCDFPLRSHLEPTNHAIIQTLLNSMAPDAAPASCCVPARLSPISILYIDAANNVVYKQYEDMVVEACGCR
effectiveness as affinity ligand for reverse phase HPLC (BMP-3 and BMP-12): equally effective
A320 minus blank (turbidity) ([1]; NaCl 0 M, 1-propanol 0%): 1.724
A320 minus blank (turbidity) ([1]; NaCl 0 M, 1-propanol 2.5%): 1.848
A320 minus blank (turbidity) ([1]; NaCl 0 M, 1-propanol 5%): 2.134
A320 minus blank (turbidity) ([1]; NaCl 0 M, 1-propanol 10%): 2.000
A320 minus blank (turbidity) ([1]; NaCl 0 M, 1-propanol 15%): 3.172
A320 minus blank (turbidity) ([1]; NaCl 0 M, 1-propanol 25%): 1.419
A320 minus blank (turbidity) ([1]; NaCl 0 M, 2-methyl-2,4-pentanediol 2.5%): 1.936
A320 minus blank (turbidity) ([1]; NaCl 0 M, 2-methyl-2,4-pentanediol 5%): 2.122
A320 minus blank (turbidity) ([1]; NaCl 0 M, 2-methyl-2,4-pentanediol 10%): 2.148
A320 minus blank (turbidity) ([1]; NaCl 0 M, 2-methyl-2,4-pentanediol 15%): 2.035
A320 minus blank (turbidity) ([1]; NaCl 0 M, 2-methyl-2,4-pentanediol 20%): 2.136
A320 minus blank (turbidity) ([1]; NaCl 0 M, 2-methyl-2,4-pentanediol 25%): 2.631
A320 minus blank (turbidity) ([1]; NaCl 0.00 M, 2-methyl-2,4-pentanediol 30%): 3.443
A320 minus blank (turbidity) ([1]; NaCl 0.00 M, 2-methyl-2,4-pentanediol 35%): 3.006
A320 minus blank (turbidity) ([1]; NaCl 0.00 M, 2-methyl-2,4-pentanediol 40%): 3.519
A320 minus blank (turbidity) ([1]; NaCl 0.00 M, 2-methyl-2,4-pentanediol 45%): 3.308
A320 minus blank (turbidity) ([1]; NaCl 0.05 M, 2-methyl-2,4-pentanediol 25%): 1.994
A320 minus blank (turbidity) ([1]; NaCl 0.05 M, 2-methyl-2,4-pentanediol 30%): 0.979
A320 minus blank (turbidity) ([1]; NaCl 0.05 M, 2-methyl-2,4-pentanediol 35%): 0.376
A320 minus blank (turbidity) ([1]; NaCl 0.05 M, 2-methyl-2,4-pentanediol 40%): 0.330
A320 minus blank (turbidity) ([1]; NaCl 0.05 M, 2-methyl-2,4-pentanediol 45%): 0.318
A320 minus blank (turbidity) ([1]; NaCl 0.1 M, 1-propanol 0%): 1.745
A320 minus blank (turbidity) ([1]; NaCl 0.1 M, 1-propanol 2.5%): 2.135
A320 minus blank (turbidity) ([1]; NaCl 0.1 M, 1-propanol 5%): 2.212
A320 minus blank (turbidity) ([1]; NaCl 0.1 M, 1-propanol 10%): 1.945
A320 minus blank (turbidity) ([1]; NaCl 0.1 M, 1-propanol 15%): 3.199
A320 minus blank (turbidity) ([1]; NaCl 0.1 M, 1-propanol 25%): 0.104
A320 minus blank (turbidity) ([1]; NaCl 0.1 M, 2-methyl-2,4-pentanediol 2.5%): 1.900
A320 minus blank (turbidity) ([1]; NaCl 0.1 M, 2-methyl-2,4-pentanediol 5%): 2.338
A320 minus blank (turbidity) ([1]; NaCl 0.1 M, 2-methyl-2,4-pentanediol 10%): 2.341
A320 minus blank (turbidity) ([1]; NaCl 0.1 M, 2-methyl-2,4-pentanediol 15%): 2.287
A320 minus blank (turbidity) ([1]; NaCl 0.1 M, 2-methyl-2,4-pentanediol 20%): 2.573
A320 minus blank (turbidity) ([1]; NaCl 0.1 M, 2-methyl-2,4-pentanediol 25%): 0.715 and 0.626
A320 minus blank (turbidity) ([1]; NaCl 0.10 M, 2-methyl-2,4-pentanediol 30%): 0.206
A320 minus blank (turbidity) ([1]; NaCl 0.10 M, 2-methyl-2,4-pentanediol 35%): 0.150
A320 minus blank (turbidity) ([1]; NaCl 0.10 M, 2-methyl-2,4-pentanediol 40%): 0.083
A320 minus blank (turbidity) ([1]; NaCl 0.10 M, 2-methyl-2,4-pentanediol 45%): 0.087
A320 minus blank (turbidity) ([1]; NaCl 0.25 M, 1-propanol 0%): 1.804
A320 minus blank (turbidity) ([1]; NaCl 0.25 M, 1-propanol 2.5%): 2.397
A320 minus blank (turbidity) ([1]; NaCl 0.25 M, 1-propanol 5%): 2.300
A320 minus blank (turbidity) ([1]; NaCl 0.25 M, 1-propanol 10%): 2.105
A320 minus blank (turbidity) ([1]; NaCl 0.25 M, 1-propanol 15%): 1.392
A320 minus blank (turbidity) ([1]; NaCl 0.25 M, 1-propanol 25%): 0.022
A320 minus blank (turbidity) ([1]; NaCl 0.25 M, 2-methyl-2,4-pentanediol 2.5%): 2.061
A320 minus blank (turbidity) ([1]; NaCl 0.25 M, 2-methyl-2,4-pentanediol 5%): 2.399
A320 minus blank (turbidity) ([1]; NaCl 0.25 M, 2-methyl-2,4-pentanediol 10%): 2.434
A320 minus blank (turbidity) ([1]; NaCl 0.25 M, 2-methyl-2,4-pentanediol 15%): 2.433
A320 minus blank (turbidity) ([1]; NaCl 0.25 M, 2-methyl-2,4-pentanediol 20%): 1.006
A320 minus blank (turbidity) ([1]; NaCl 0.25 M, 2-methyl-2,4-pentanediol 30%): −0.015
A320 minus blank (turbidity) ([1]; NaCl 0.25 M, 2-methyl-2,4-pentanediol 35%): −0.065
A320 minus blank (turbidity) ([1]; NaCl 0.25 M, 2-methyl-2,4-pentanediol 40%): 0.015
A320 minus blank (turbidity) ([1]; NaCl 0.25 M, 2-methyl-2,4-pentanediol 45%): −0.012
A320 minus blank (turbidity) ([1]; NaCl 0.5 M, 1-propanol 0%): 1.953
A320 minus blank (turbidity) ([1]; NaCl 0.5 M, 1-propanol 2.5%): 2.170
A320 minus blank (turbidity) ([1]; NaCl 0.5 M, 1-propanol 5%): 1.629
A320 minus blank (turbidity) ([1]; NaCl 0.5 M, 1-propanol 10%): 1.313
A320 minus blank (turbidity) ([1]; NaCl 0.5 M, 1-propanol 15%): 0.305
A320 minus blank (turbidity) ([1]; NaCl 0.5 M, 1-propanol 25%): −0.001
